Measurements reported in patent US20210169880A1.

Legend:
human ROR1 (human) = human ROR1 (human) (UniProt Q01973); assay: cell-based or functional assay
human SLAMF7 (human) = human SLAMF7 (human) (UniProt Q9NQ25); assay: cell-based or functional assay

Row | IFN-γ in supernatant (ELISA), CD8+ CAR-T cells co-cultured with RCH-ACV, untreated (human ROR1 (human)) [pg/mL] | proliferation index (CFSE, 72 h), CD8+ CAR-T cells co-cultured with RCH-ACV, untreated (proliferation index) (human ROR1 (human)) | specific lysis of K562/ROR1 target cells by CD8+ CAR-T cells, no dasatinib, t=10 h (human ROR1 (human)) [%] | specific lysis of K562/ROR1 target cells by CD8+ CAR-T cells, no dasatinib, up to t=5 h (human ROR1 (human)) [%] | specific lysis of ROR1+ RCH-ACV target cells by CD8+ CAR-T cells, untreated, t=8 h (human ROR1 (human)) [%] | specific lysis of K562/SLAMF7 target cells by CD8+ CAR-T cells, no dasatinib, t=6 h (human SLAMF7 (human)) [%] | specific lysis of K562/SLAMF7 target cells by CD8+ CAR-T cells, no dasatinib, t=12 h (human SLAMF7 (human)) [%] | Binder
1 | 1310 | 2.84 | 94 | 73 | > 90 | – | – | ROR1 CAR with 4-1BB costimulatory domain (protein) QVQLVESGGALVQPGGSLTLSCKASGFDFSAYYMSWVRQAPGKGLEWIATIYPSSGKTYYAASVQGRFTISADNAKNTVYLQMNSLTAADTATYFCARDSYADDGALFNIWGQGTLVTVSSGGGGSGGGGSGGGGSQLVLTQSPSVSAALGSSAKITCTLSSAHKTDTIDWYQQLAGQAPRYLMYVQSDGSYEKRSGVPDRFSGSSSGADRYLIISSVQADDEADYYCGADYIGGYVFGGGTQLTVGESKYGPPCPPCPMFWVLVVVGGVLACYSLLVTVAFIIFWVKRGRKKLLYIFKQPFMRPVQTTQEEDGCSCRFPEEEEGGCELRVKFSRSADAPAYQQGQNQLYNELNLGRREEYDVLDKRRGRDPEMGGKPRRKNPQEGLYNELQKDKMAEAYSEIGMKGERRRGKGHDGLYQGLSTATKDTYDALHMQALPPR
2 | – | – | – | – | – | 67 | 85 | SLAMF7 CAR with CD28 costimulatory domain (protein) EVQLVESGGGLVQPGGSLRLSCAASGFDFSRYWMSWVRQAPGKGLEWIGEINPDSSTINYAPSLKDKFIISRDNAKNSLYLQMNSLRAEDTAVYYCARPDGNYWYFDVWGQGTLVTVSSGGGGSGGGGSGGGGSDIQMTQSPSSLSASVGDRVTITCKASQDVGIAVAWYQQKPGKVPKLLIYWASTRHTGVPDRFSGSGSGTDFTLTISSLQPEDVATYYCQQYSSYPYTFGQGTKVEIKESKYGPPCPPCPAPPVAGPSVFLFPPKPKDTLMISRTPEVTCVVVDVSQEDPEVQFNWYVDGVEVHNAKTKPREEQFQSTYRVVSVLTVLHQDWLNGKEYKCKVSNKGLPSSIEKTISKAKGQPREPQVYTLPPSQEEMTKNQVSLTCLVKGFYPSDIAVEWESNGQPENNYKTTPPVLDSDGSFFLYSRLTVDKSRWQEGNVFSCSVMHEALHNHYTQKSLSLSLGKMFWVLVVVGGVLACYSLLVTVAFIIFWVRSKRSRGGHSDYMNMTPRRPGPTRKHYQPYAPPRDFAAYRSRVKFSRSADAPAYQQGQNQLYNELNLGRREEYDVLDKRRGRDPEMGGKPRRKNPQEGLYNELQKDKMAEAYSEIGMKGERRRGKGHDGLYQGLSTATKDTYDALHMQALPPR
3 | – | – | – | – | – | 63 | 83 | SLAMF7 CAR with 4-1BB costimulatory domain (protein) EVQLVESGGGLVQPGGSLRLSCAASGFDFSRYWMSWVRQAPGKGLEWIGEINPDSSTINYAPSLKDKFIISRDNAKNSLYLQMNSLRAEDTAVYYCARPDGNYWYFDVWGQGTLVTVSSGGGGSGGGGSGGGGSDIQMTQSPSSLSASVGDRVTITCKASQDVGIAVAWYQQKPGKVPKLLIYWASTRHTGVPDRFSGSGSGTDFTLTISSLQPEDVATYYCQQYSSYPYTFGQGTKVEIKESKYGPPCPPCPAPPVAGPSVFLFPPKPKDTLMISRTPEVTCVVVDVSQEDPEVQFNWYVDGVEVHNAKTKPREEQFQSTYRVVSVLTVLHQDWLNGKEYKCKVSNKGLPSSIEKTISKAKGQPREPQVYTLPPSQEEMTKNQVSLTCLVKGFYPSDIAVEWESNGQPENNYKTTPPVLDSDGSFFLYSRLTVDKSRWQEGNVFSCSVMHEALHNHYTQKSLSLSLGKMFWVLVVVGGVLACYSLLVTVAFIIFWVKRGRKKLLYIFKQPFMRPVQTTQEEDGCSCRFPEEEEGGCELRVKFSRSADAPAYQQGQNQLYNELNLGRREEYDVLDKRRGRDPEMGGKPRRKNPQEGLYNELQKDKMAEAYSEIGMKGERRRGKGHDGLYQGLSTATKDTYDALHMQALPPR
